Target: T1, NP C-terminal tail peptide (Influenza A virus A/HK/483/97 (H5N1), UniProt Q9PX50)
T1 chain: DNAEEYDN
Test: MST

B1: Cy5 9-mer poly-uridine RNA (XNA)
RNA: UUUUUUUUU
modifications: 2'-O-methyl
**Q.** Does B1 bind?
**A.** Result: no binding

— paper PMC8053115
